This is an account of results in PMC3834312.

Holding throughout (assay): MODified Histone Peptide Array
For assay [1], the target named is H4 R19me2s (histone peptide array spots containing the mark). The settings on record: whole cell lysate from HEK293 cells transiently transfected; ECL plus western blot detecting reagent; read off a plot. (Immunoblotting shows a protein as a band on a membrane.)
The target in assay [2] is H4 K12ac (histone peptide array spots containing the mark). Particulars: whole cell lysate from HEK293 cells transiently transfected; ECL plus western blot detecting reagent; parent: est. 8.1; read off a plot.
In assay [3] the target is H2A K13ac (histone peptide array spots containing the mark). Particulars: whole cell lysate from HEK293 cells transiently transfected; ECL plus western blot detecting reagent; read off a plot.
The target in assay [4] is H4 R24me2a (histone peptide array spots containing the mark). Particulars: whole cell lysate from HEK293 cells transiently transfected; ECL plus western blot detecting reagent; read off a plot.
The target in assay [5] is H4 S1P (histone peptide array spots containing the mark). The settings on record: whole cell lysate from HEK293 cells transiently transfected; ECL plus western blot detecting reagent; parent: est. 5.3; read off a plot.
Assay [6] deals with H4 K5ac (histone peptide array spots containing the mark). The settings on record: whole cell lysate from HEK293 cells transiently transfected; ECL plus western blot detecting reagent; parent: est. 9.4; read off a plot.
Assay [7] deals with H4 R3me2s (histone peptide array spots containing the mark). Particulars: whole cell lysate from HEK293 cells transiently transfected; ECL plus western blot detecting reagent; parent: est. 5.9; read off a plot.
Assay [8] has as its target H4 R3me2a (histone peptide array spots containing the mark). The settings on record: whole cell lysate from HEK293 cells transiently transfected; ECL plus western blot detecting reagent; parent: est. 5.9; read off a plot.
Assay [9] has as its target H4 K8ac (histone peptide array spots containing the mark). The settings on record: whole cell lysate from HEK293 cells transiently transfected; ECL plus western blot detecting reagent; parent: est. 10; read off a plot.
The target of assay [10] is H2A K9ac (histone peptide array spots containing the mark). The settings on record: whole cell lysate from HEK293 cells transiently transfected; ECL plus western blot detecting reagent; read off a plot.

As to “BRD4-SF-FLAG (BRD4 short isoform with a single FLAG epitope tag at the C-terminus) (from UniProt O60885-2) Y433A”, the other: Specificity Factor in [1] came out at 3.4; in assay [2] it was 6.1; in assay [3], 4.5; in assay [4], 3.9; in [5], 3.4; in assay [6], 11. Also, the other: Specificity Factor in assay [7] amounted to 5.5; in [8] it was 6.7; in assay [9] it was 13; in assay [10] it was 4.4.
